Measured values from patent publication US20090186824A1.
Where no end group is shown, it is not given here.

Molecular target: dipeptidyl peptidase IV (DPPIV) in plasma of ICR mouse blood (mouse), P28843
Test: cell-based or functional assay

Sequence of dipeptidyl peptidase IV (DPPIV) in plasma of ICR mouse blood (mouse), P28843 (P28843 37-760 limits assumed): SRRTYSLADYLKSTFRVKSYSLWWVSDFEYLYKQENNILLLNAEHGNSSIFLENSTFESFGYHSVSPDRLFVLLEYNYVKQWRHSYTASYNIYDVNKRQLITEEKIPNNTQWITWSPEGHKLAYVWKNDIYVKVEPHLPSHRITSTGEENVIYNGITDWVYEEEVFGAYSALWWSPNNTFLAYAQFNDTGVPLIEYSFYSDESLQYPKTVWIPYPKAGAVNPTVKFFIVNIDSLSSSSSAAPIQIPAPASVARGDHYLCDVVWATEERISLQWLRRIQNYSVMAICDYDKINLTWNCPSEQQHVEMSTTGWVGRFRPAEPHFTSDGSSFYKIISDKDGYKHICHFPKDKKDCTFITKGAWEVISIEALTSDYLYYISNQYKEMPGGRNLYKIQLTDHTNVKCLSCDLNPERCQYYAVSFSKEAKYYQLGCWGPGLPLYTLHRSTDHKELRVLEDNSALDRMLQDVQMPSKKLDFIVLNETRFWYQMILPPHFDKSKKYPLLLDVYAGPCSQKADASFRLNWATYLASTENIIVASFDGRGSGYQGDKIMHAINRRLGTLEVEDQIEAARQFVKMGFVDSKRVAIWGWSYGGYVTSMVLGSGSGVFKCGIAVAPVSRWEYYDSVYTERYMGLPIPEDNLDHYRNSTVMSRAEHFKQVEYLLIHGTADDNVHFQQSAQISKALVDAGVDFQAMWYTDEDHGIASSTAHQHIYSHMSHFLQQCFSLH

RIVPA-OH [SEQ ID NO 10]
% DPPIV Activity (Saline) (% relative to saline control): 51
